{
  "source": "patent US20180086849A1",
  "about": "(Hoffmann-La Roche, published 2018)",
  "binders": {"B1": {"name": "M4-3(A7)/ML2(C5) (IgG) (antibody, V domains shown)", "VH": "QVQLQESGPGLVKPSQTLSLTCTVSGGSITDGYYWNWIRQHPGKGLEWIGYITFDGRNNYNPSLKSRVTISRDTSKNQFSLKLSSVTAADTAVYYCADFDYWGQGTLVTVSS", "VL": "DIQMTQSPSSLSASVGDRVTITCRASRGIREYLNWYQQKPGKAPKLLIYYTGSLHSGVPSRFSGSGSGTDFTLTISSLQPEDFATYYCQQYSELPWTFGQGTKVEIK", "notes": "Human IgG1 format"}},
  "key": {"[1]": {"molecular_target": "T1, hu-MCSP(D3 domain)-avi-his (human, UniProt Q6UVK1 1582-2224, biotinylated where used for selection or for coupling to the SA chip)", "T1 construct": "also called human MCSP(D3 domain)-avi-his; human MCSP D3", "T1 sequence": "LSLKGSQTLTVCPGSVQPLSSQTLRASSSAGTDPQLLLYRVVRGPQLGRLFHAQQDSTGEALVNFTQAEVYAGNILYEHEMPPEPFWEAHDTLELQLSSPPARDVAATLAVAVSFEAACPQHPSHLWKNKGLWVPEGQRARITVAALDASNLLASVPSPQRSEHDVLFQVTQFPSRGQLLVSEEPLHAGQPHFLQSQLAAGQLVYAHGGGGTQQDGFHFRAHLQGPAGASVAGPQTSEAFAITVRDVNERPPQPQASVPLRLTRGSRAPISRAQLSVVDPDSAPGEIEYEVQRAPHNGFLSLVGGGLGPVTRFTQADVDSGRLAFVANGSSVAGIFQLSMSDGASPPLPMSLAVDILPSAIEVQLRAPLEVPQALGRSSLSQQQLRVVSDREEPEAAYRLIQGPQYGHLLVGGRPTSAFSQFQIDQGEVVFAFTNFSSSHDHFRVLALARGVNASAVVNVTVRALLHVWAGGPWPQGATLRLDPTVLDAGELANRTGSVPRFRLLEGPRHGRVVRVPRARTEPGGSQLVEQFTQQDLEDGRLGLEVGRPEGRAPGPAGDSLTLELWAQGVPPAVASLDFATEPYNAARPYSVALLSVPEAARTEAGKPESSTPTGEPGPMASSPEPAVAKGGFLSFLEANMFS", "assay": "SPR (ProteOn XPR36), IgG KD against parental M4-3/ML2", "protocol": "(§1) Briefly, carboxymethylated dextran biosensor chips (CM5, GE Healthcare) were activated with N-ethyl-N′-(3-dimethylaminopropyl)-carbodiimide hydrochloride (EDC) and N-hydroxysuccinimide (NHS) according to the supplier's instructions. Anti-human F(ab′)2 fragment specific capture antibody was diluted with 10 mM sodium acetate, pH 5.0 at 50 μg/ml before injection at a flow rate of 10 μl/minute to achieve approximately up to 10.000 response units (RU) of coupled capture antibody. Following the injection of the capture antibody, 1 M ethanolamine was injected to block unreacted groups. For kinetics measurements, Fabs from bacterial supernatant or purified Fabs are injected at a flow rate of 10 ul/minute for 300 s and a dissociation of 300 s for capture baseline stabilization. […] The surface of the sensorchip was regenerated by injection of glycine pH 1.5 for 30 s at 90 ul/min followed by injection of NaOH for 20 s at the same flow rate. Association rates (kon) and dissociation rates (koff) were calculated using a simple one-to-one Langmuir binding model (ProteOn XPR36 Evaluation Software or Scrubber software (BioLogic)) by simultaneously fitting the association and dissociation sensorgrams. The equilibrium dissociation constant (KD) was calculated as the ratio koff/kon. […] Since CDR1 and 2 of the light chain were randomized independent from CDR3, the obtained CDRs were combined during IgG conversion.\n(§2) In the IgG format affinities were measured again to the human MCSP antigen (SEQ ID NO. 390), in addition also to the cynomolgus homologue (SEQ ID NO. 389). Method exactly as described for the Fab fragments, just purified IgG from mammalian production were used."}, "cynomolgus MCSP D3": {"molecular_target": "T2, cynomolgus MCSP D3 (cynomolgus, UniProt Q6UVK1 1582-2224 (human entry))", "T2 construct": "also called cynomolgus homologue; not shown: C-terminal tag", "T2 chain": "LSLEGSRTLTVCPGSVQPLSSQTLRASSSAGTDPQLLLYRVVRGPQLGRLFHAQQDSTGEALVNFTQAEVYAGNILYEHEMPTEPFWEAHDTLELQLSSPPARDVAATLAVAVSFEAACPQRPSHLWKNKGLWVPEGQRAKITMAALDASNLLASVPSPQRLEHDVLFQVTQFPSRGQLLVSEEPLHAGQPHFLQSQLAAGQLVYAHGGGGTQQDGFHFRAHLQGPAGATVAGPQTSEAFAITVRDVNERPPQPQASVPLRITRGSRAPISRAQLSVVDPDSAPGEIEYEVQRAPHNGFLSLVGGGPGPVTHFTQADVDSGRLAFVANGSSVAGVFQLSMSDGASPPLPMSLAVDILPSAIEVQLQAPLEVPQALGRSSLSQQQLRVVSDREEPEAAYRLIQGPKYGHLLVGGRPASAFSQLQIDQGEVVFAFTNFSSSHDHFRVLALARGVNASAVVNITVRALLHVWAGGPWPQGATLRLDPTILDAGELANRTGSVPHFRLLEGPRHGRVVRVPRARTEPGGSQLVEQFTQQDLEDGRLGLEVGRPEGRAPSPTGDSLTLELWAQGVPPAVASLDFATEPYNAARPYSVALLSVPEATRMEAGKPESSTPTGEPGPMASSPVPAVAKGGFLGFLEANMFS", "assay": "SPR (ProteOn XPR36), IgG KD against parental M4-3/ML2", "protocol": "as §1, §2"}, "[2]": {"molecular_target": "T1, hu-MCSP(D3 domain)-avi-his", "assay": "SPR (ProteOn XPR36), IgG captured, antigen as analyte", "protocol": "Briefly, carboxymethylated dextran biosensor chips (CM5, GE Healthcare) were activated with N-ethyl-N′-(3-dimethylaminopropyl)-carbodiimide hydrochloride (EDC) and N-hydroxysuccinimide (NHS) according to the supplier's instructions. Anti-human F(ab′)2 fragment specific capture antibody was diluted with 10 mM sodium acetate, pH 5.0 at 50 μg/ml before injection at a flow rate of 10 μl/minute to achieve approximately up to 10.000 response units (RU) of coupled capture antibody. Following the injection of the capture antibody, 1 M ethanolamine was injected to block unreacted groups. For kinetics measurements, Fabs from bacterial supernatant or purified Fabs are injected at a flow rate of 10 ul/minute for 300 s and a dissociation of 300 s for capture baseline stabilization. […] Association rates (kon) and dissociation rates (koff) were calculated using a simple one-to-one Langmuir binding model (ProteOn XPR36 Evaluation Software or Scrubber software (BioLogic)) by simultaneously fitting the association and dissociation sensorgrams. The equilibrium dissociation constant (KD) was calculated as the ratio koff/kon. […]\nIn the IgG format affinities were measured again to the human MCSP antigen (SEQ ID NO. 390), in addition also to the cynomolgus homologue (SEQ ID NO. 389). […]"}},
  "data": [
    {"binder": "B1", "values": [
      {"measurement": "Comparative binding affinity - Fold increase over parent", "setting": "[1]", "result": 28.6, "unit": "fold"},
      {"measurement": "Comparative binding affinity - Fold increase over parent", "setting": "cynomolgus MCSP D3", "result": 10, "unit": "fold"},
      {"measurement": "Kd", "setting": "[2]", "result": 0.07, "unit": "nM"}
    ]}
  ]
}
